Results on 1 substance are retold here after publication PMC8626583, “Collagen’s primary structure determines collagen:HSP47 complex stoichiometry” (The Journal of Biological Chemistry, 2021).

The target in the test is collagen model peptide Ac-(PPG)2PTGPRG(PPG)2-NH2. Description: crystal structure; HSP47 H273N/H274N with Ac-(PPG)2PTGPRG(PPG)2-NH2, space group P2_(1); crystallization conditions not told.

In turn, “HSP47 double-mutant H273N/H274N (natural protein)” had a stoichiometry N (HSP47 per collagen triple helix) of 2.
